Source: patent US20160158380A1 (INSERM INSTITUT NATIONAL DE LA SANTE ET DE LA RECHERCHE …, published 2016)

Assays:
human CLDN8 = biological target: T1, human CLDN8 (human, UniProt P56748 1-225); assay: flow cytometry on SW480 cells transiently transfected with human CLDN8
T1 construct: whole, on cells
T1 sequence (looked up): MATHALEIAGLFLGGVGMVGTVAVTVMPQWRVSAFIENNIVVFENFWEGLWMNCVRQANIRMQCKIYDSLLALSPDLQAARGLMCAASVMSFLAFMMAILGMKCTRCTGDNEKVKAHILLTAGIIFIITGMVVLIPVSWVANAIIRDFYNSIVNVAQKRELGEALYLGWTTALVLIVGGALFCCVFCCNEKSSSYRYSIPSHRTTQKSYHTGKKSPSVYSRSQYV
Procedure: (§1) Hybridomas or mAbs binding was determined with a FACScan fluorescence-activated cell sorter (Quanta apparatus, Beckman Coulter). Cells were seeded in 25 cm² flasks (2×10⁵ cells/flask). After a 48-hour rest, one million cells were pelleted, Washed with PBS-1% BSA and incubated with hybridomas or mAbs, on ice for 1 h. After washing, an appropriate anti-mouse FITC conjugated monoclonal antibody ((1:60 dilution; (Invitrogen) was added (on ice for 45 mn) to detect the primary antibodies. Direct incubation of cells with the secondary antibody was used for background measurements (negative control).
(§2) After transitory transfection on SW480 cells of human cDNA clone of CLDN8 (sc320974, Origene technologies, USA) and murine cDNA clone of CLDN1 (IRAVp968A105D, LifeScience), we analysed by FACs cross-reactivity of 6F6C3 mAb.

murine CLDN1 = biological target: T2, murine CLDN1 (murine, UniProt O88551 1-211); assay: flow cytometry on SW480 cells transiently transfected with murine CLDN1
T2 construct: whole, on cells; also called mCLDN1
T2 sequence (looked up): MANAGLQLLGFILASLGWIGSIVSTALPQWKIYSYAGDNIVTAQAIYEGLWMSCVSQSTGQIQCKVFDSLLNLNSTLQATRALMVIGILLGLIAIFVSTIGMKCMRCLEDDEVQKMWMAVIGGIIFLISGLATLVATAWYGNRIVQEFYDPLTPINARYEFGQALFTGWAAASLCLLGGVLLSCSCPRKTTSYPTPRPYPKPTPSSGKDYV
Procedure: as §1, §2

CLDN7 = biological target: T3, CLDN7 (human, UniProt O95471 1-211); assay: flow cytometry on parental SW480 cells, which express CLDN7
T3 construct: whole, on cells; Species is inferred from the human SW480 cell line
T3 sequence (looked up): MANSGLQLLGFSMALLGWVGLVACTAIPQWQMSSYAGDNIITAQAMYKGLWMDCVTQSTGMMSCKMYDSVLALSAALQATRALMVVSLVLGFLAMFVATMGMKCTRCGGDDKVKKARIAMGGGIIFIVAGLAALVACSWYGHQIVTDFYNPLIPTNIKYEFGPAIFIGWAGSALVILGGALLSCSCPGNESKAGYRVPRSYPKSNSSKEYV

Measured: binding result

B1: 6F6C3 mAb (antibody, V domains shown)
VH: QIQLVQSGPELKKPGETVRISCKASGYTFTTSGMQWLQKMPGKGLKWIGWINTHFGEPKYAEDFKGRFAFSLETSASTAYLQISNLKNEDTATYFCAGAGYYGSRYFDVWGAGTTVTVSS
VL: DIVMTQSQKFMSTSVGDRVSITCKASQNVGTAVAWYQQKPGQSPKLLIYSASNRYTGVPDRFTGSGSGTDFTLTISNMQSEDLADYFCQQYSSYPLTFGGGTKLEIK
notes: Mouse hybridoma monoclonal antibody, IgG3 heavy chain and kappa light chain; also called mAb6F6C3; MAb 6F6C3
no binding (tested: 10 µg/mL): all assays above
